Common to all, as to assay: SPR
In assay [1] the target is T1, recombinant mouse AXL protein (mouse, UniProt Q00993 19-445).
T1 chain: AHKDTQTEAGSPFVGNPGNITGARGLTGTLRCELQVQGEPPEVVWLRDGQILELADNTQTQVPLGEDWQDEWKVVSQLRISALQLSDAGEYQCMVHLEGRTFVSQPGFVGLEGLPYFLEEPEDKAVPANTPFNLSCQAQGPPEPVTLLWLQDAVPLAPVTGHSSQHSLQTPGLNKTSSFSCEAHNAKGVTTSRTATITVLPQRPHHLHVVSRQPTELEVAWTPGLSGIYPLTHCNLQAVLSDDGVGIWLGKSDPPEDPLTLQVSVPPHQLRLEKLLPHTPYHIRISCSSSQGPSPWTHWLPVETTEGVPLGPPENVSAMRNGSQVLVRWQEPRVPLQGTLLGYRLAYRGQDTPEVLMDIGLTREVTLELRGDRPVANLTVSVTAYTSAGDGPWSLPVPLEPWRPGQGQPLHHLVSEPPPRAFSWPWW

The target in assay [2] is recombinant human AXL protein (human, UniProt P30530 26-451).
Target sequence in this assay (P30530 26-451): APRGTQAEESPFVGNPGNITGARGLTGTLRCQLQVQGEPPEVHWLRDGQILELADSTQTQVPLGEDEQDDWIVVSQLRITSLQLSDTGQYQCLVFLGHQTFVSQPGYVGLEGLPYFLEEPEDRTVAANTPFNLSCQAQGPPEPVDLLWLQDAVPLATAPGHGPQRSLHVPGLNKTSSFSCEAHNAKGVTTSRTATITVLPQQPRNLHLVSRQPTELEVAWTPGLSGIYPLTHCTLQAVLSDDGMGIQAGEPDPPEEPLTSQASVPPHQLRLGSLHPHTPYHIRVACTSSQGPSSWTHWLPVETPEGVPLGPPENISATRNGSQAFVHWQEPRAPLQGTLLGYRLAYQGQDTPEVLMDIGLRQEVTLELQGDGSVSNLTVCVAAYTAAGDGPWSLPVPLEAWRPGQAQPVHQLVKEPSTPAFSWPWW
For assay [3], the target named is T2, recombinant mouse AXL protein (mouse, UniProt Q00993 19-445).
T2 chain: T1 chain

In assay [4] the target is recombinant human AXL protein (human, UniProt P30530 26-451). The source holds these as a separate data set.
Target sequence in this assay (P30530 26-451): as above

Numbering of substitutions follows the chain as printed.

B1: anti-AXL single domain antibody sdAb25 (VHH)
VHH: QVQLQESGGGLVQPGGSLRLSCVASGSIFSIYAMGWYRQAPGKQRELVAGISSGGSTNYADSVKGRFTISRDNAKNTVYLQMNSLKPEDTAVYYCNYDLVEAVTGEYDYWGQGTQVTVSS
Turning to B1, the Kd in assay [1] was determined as 439 nM; in assay [2], 9.1 nM.

B2: anti-AXL single domain antibody sdAb12 (VHH)
VHH: B1 VHH with Q13K
Take B2: the figures for the Kd in assay [1] and in assay [2] were 354 nM and 7.7 nM, respectively.

B3: anti-AXL single domain antibody sdAb4 (VHH)
VHH: B1 VHH with E101K
On to B3, for which the Kd in assay [1] was determined as 541 nM; in assay [2], 10.8 nM.

B4: anti-AXL single domain antibody sdAb19 (VHH)
VHH: QVQLQESGGGMVQPGGSLRLSCAASGFTFTSYDMTWLRQTPGKGPEWVSTISTGGLRTYYGNSVKGRFIISRDNTKNTLYLQMNSLKPEDTALYYCARGPFTVADPRRGQGTQVTVSS
Consider B4, for which the Kd is 11.8 nM in assay [1] and 24 nM in assay [2].

B5: anti-AXL single domain antibody sdAb20 (VHH)
VHH: B4 VHH with M11L, Q13R
As to B5, the Kd was 5.2 nM in assay [3] and 22 nM in assay [4].
